{"source": "paper PMC8956514", "binders": {"B1": {"name": "FAM-hmDNA (dsDNA)", "DNA 1": "CCATGCGCTGACACTAGAATTGCCTAAGACCATACA", "DNA 2": "TGTATGGTCTTAGGCAATTCTAGTGTCAGCGCATGG", "modifications": "5-methylcytosine at position 30 of strand 2 (hemimethylated CpG)"}}, "target": "DNMT5 (Cryptococcus neoformans, UniProt J9VI03 58-2377)", "sequence (J9VI03 58-2377)": "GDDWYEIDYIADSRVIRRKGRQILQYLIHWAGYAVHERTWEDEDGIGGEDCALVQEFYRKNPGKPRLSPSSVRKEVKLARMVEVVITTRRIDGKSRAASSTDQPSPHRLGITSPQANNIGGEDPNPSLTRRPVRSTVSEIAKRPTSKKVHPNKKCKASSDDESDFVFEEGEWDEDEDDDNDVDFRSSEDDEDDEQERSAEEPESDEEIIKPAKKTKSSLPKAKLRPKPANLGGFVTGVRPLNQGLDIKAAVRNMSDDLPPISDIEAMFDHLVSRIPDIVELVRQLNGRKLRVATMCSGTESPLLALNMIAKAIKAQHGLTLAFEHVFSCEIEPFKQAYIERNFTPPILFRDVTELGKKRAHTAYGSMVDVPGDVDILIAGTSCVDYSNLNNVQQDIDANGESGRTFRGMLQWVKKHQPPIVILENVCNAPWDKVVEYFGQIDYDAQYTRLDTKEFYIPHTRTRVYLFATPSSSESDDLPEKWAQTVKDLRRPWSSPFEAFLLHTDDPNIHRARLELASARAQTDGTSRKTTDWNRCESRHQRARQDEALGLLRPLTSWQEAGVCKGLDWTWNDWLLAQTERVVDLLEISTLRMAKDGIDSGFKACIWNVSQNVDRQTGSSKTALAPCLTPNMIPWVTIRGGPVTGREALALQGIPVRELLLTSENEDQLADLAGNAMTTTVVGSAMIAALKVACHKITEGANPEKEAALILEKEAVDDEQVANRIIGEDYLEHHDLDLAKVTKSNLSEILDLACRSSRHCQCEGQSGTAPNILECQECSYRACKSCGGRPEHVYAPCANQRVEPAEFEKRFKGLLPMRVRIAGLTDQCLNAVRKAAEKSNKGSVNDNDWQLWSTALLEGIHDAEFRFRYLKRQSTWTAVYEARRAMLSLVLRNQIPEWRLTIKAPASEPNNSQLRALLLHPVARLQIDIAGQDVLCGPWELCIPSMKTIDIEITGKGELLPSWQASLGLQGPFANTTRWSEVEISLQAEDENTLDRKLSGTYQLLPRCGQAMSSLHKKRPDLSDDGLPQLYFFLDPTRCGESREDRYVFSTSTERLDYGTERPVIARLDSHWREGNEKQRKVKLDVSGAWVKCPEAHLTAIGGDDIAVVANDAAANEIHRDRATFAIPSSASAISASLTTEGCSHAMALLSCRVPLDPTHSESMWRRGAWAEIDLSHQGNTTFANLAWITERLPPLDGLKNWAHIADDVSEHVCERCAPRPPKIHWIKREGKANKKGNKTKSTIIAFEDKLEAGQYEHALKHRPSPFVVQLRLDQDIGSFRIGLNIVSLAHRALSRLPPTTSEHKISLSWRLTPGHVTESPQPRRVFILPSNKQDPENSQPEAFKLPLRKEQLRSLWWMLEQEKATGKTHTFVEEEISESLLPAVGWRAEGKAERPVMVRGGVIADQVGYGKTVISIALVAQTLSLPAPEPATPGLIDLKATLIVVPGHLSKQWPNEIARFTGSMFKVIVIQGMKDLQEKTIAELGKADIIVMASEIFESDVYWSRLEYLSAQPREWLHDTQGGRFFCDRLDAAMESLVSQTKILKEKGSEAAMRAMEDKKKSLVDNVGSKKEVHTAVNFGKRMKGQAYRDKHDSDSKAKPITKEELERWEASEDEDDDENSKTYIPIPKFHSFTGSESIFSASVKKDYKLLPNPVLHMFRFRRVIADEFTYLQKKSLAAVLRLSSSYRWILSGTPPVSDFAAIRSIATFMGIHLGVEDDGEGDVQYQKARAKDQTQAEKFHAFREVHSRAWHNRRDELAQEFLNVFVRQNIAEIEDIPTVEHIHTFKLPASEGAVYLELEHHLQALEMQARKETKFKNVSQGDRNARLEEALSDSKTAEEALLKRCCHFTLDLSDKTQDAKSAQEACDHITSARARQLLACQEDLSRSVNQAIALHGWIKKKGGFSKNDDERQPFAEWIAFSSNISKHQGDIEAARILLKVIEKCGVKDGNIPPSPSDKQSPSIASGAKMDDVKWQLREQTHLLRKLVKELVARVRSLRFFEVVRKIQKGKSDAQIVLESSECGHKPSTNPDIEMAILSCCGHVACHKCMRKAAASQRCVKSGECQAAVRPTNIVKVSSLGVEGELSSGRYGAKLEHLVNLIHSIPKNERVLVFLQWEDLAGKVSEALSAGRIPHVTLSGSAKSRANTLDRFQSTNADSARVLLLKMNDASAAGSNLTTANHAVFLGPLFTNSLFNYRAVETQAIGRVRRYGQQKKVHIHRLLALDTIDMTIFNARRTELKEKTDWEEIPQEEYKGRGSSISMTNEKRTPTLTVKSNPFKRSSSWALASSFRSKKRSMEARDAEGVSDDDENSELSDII", "assay": "fluorescence polarization"}
{"binder": "B1", "values": [{"measurement": "binding signal", "value": "~4 fold preference over umDNA"}]}
